# Data published in patent US20250043302A1, “MUTATED HYDROXYPHENYLPYRUVATE DIOXYGENASE POLYPEPTIDE, AND CODING GENE AND USE THEREOF” (BEIJING DABEINONG BIOTECHNOLOGY CO., LTD., priority 2021, published 2025).
# B1: GmHPPDm-F383W-02: nucleotide sequence encoding Glycine max HPPD with F383W; vector DBN11748 (nucleic acid)
# DNA: ATGCCAATGTACACACCATCGCTCTCCGCCCCTTCTTCCAACCATATTCAGCCATCCGTGACTCTGCCTCTCTACATCACAACCACCAAGTTGAACCTGAAGCAGCAGCACCATACGACTCCTATGCCTATACCCATGTGCAATGAGATCCAAGCACAGGCTCAGGCACAAGCTCAACCCGGATTCAAACTCGTGGGATTCAAGAACTTCGTCCGTACCAATCCAAAATCTGACCGCTTCCAGGTGAACAGATTCCACCACATAGAGTTTTGGTGTACTGATGCAACGAATGCTTCGAGGAGGTTTTCATGGGGCTTAGGCATGCCGATTGTAGCAAAGTCAGACCTTTCTACAGGGAACCAAATTCATGCAAGCTATCTGCTCCGCTCAGGTGATTTGTCTTTCTTGTTCTCAGCTCCATATTCTCCATCATTATCTGCTGGGTCATCAGCAGCATCTAGTGCGTCGATCCCTAGCTTTGATGCCGCCACCTGCCTCGCCTTCGCCGCCAAACATGGATTTGGTGTTCGCGCCATTGCTCTTGAGGTTGCCGATGCCGAGGCTGCTTTTAGCGCCTCCGTCGCCAAGGGAGCTGAGCCTGCGTCACCTCCTGTTCTTGTTGATGATCGAACTGGTTTTGCTGAAGTGCGTCTTTACGGCGACGTGGTGCTCAGATATGTTAGTTACAAGGATGCTGCTCCTCAAGCGCCGCACGCTGATCCTTCAAGATGGTTTCTTCCGGGGTTTGAGGCCGCTGCTAGTTCATCTTCCTTCCCGGAGTTGGATTACGGCATACGGCGGCTTGACCATGCTGTCGGCAATGTTCCTGAGCTTGCTCCGGCGGTACGGTACTTGAAAGGTTTCTCCGGGTTCCATGAATTTGCAGAGTTCACGGCGGAAGATGTTGGAACAAGTGAAAGCGGATTGAATTCTGTTGTTTTGGCCAACAACAGTGAAACTGTTCTGCTCCCCCTCAATGAACCAGTTTATGGCACAAAGCGCAAGAGCCAGATTGAAACATATCTCGAGCACAATGAAGGCGCCGGCGTCCAGCATCTTGCTTTGGTGACTCATGATATCTTCACAACACTTAGGGAGATGAGGAAGAGGAGTTTCCTCGGCGGGTTTGAATTCATGCCCAGTCCCCCGCCGACCTACTATGCAAATCTGCACAACAGGGCTGCAGATGTGCTGACTGTAGACCAGATCAAGCAATGTGAAGAACTTGGAATTTTAGTGGATAGAGACGACCAAGGTACACTACTTCAAATATTCACCAAACCAGTCGGTGACAGACCAACAATTTGGATCGAGATTATACAAAGAATTGGATGCATGGTCGAGGATGAAGAAGGGAAGGTGTACCAGAAGGGAGCATGTGGTGGTTTTGGGAAAGGAAATTTTTCTGAGCTGTTTAAATCCATCGAGGAATATGAGAAAACCTTAGAAGCTAAAAGAACTGCATGA
# modifications: GmHPPDm-F383W-02 Nucleotide Sequence
# notes: vector DBN11748
# Key:
# Assay type in all cases: in vivo
# [1] = test system: Arabidopsis thaliana T1 plants; test: Mesotrione tolerance of transgenic Arabidopsis thaliana T1 plants (spray, bleached leaf area grade, damage score); set-up: Scores: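 damage score 0-100 computed as Σ(N×S)/(T×M)×100 over grades 0-3 with higher meaning more damage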; details: Arabidopsis thaliana T1 plants; for Grade 0 (classification and statistics of the grade of pesticide damage; number of plants) / Grade 1 (classification and statistics of the grade of pesticide damage; number of plants) / Grade 2 (classification and statistics of the grade of pesticide damage; number of plants) / Grade 3 (classification and statistics of the grade of pesticide damage; number of plants): 16 plants
# Procedure, shortened: (§1)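 Damage graded 0–3 from the proportion of bleached leaf area 7 days after spraying. Plants were glufosinate-selected T1 lines, 18 days after sowing, plus vector and wild-type controls. Rates: mesotrione 52.5–420, isoxaflutole 35–280, topramezone 25–200 g ai/ha, with water (0×).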
# [2] = test system: Arabidopsis thaliana T1 plants; test: Isoxaflutole tolerance of transgenic Arabidopsis thaliana T1 plants (spray, bleached leaf area grade, damage score); set-up: Scores (pesticide damage): scale not given here; details: spray, Arabidopsis thaliana T1 plants; for Classification and statistics of the grade of pesticide damage: Grade 0 (number of plants) / Classification and statistics of the grade of pesticide damage: Grade 1 (number of plants) / Classification and statistics of the grade of pesticide damage: Grade 2 (number of plants) / Classification and statistics of the grade of pesticide damage: Grade 3 (number of plants): 16 plants
# Procedure, shortened: as §1
# [3] = test system: Arabidopsis thaliana T1 plants; test: Topramezone tolerance of transgenic Arabidopsis thaliana T1 plants (spray, bleached leaf area grade, damage score); details: 7 DAT, Table 4; for Classification and statistics of the grade of pesticide damage: Grade 0 / Classification and statistics of the grade of pesticide damage: Grade 1 / Classification and statistics of the grade of pesticide damage: Grade 2 / Classification and statistics of the grade of pesticide damage: Grade 3: number of plants; for Scores: pesticide damage score 0-100
# Procedure, shortened: as §1
# [4] = isoxaflutole 35 g ai/ha (0.5x field concentration)
# [5] = isoxaflutole 70 g ai/ha (1x field concentration)
molecule,measurement,setting,value
B1,Resistance evaluation,[1]; mesotrione 52.5 g ai/ha,Non-resistant
same,Scores,[1]; mesotrione 52.5 g ai/ha,100
same,Grade 0 (classification and statistics of the grade of pesticide damage; number of plants),[1]; mesotrione 52.5 g ai/ha,0
same,Grade 1 (classification and statistics of the grade of pesticide damage; number of plants),[1]; mesotrione 52.5 g ai/ha,0
same,Grade 2 (classification and statistics of the grade of pesticide damage; number of plants),[1]; mesotrione 52.5 g ai/ha,0
same,Grade 3 (classification and statistics of the grade of pesticide damage; number of plants),[1]; mesotrione 52.5 g ai/ha,16
same,Resistance evaluation,[1]; mesotrione 105 g ai/ha,Non-resistant
same,Scores,[1]; mesotrione 105 g ai/ha,100
same,Grade 0 (classification and statistics of the grade of pesticide damage; number of plants),[1]; mesotrione 105 g ai/ha,0
same,Grade 1 (classification and statistics of the grade of pesticide damage; number of plants),[1]; mesotrione 105 g ai/ha,0
same,Grade 2 (classification and statistics of the grade of pesticide damage; number of plants),[1]; mesotrione 105 g ai/ha,0
same,Grade 3 (classification and statistics of the grade of pesticide damage; number of plants),[1]; mesotrione 105 g ai/ha,16
same,Resistance evaluation,[2]; [4],Non-resistant
same,Scores (pesticide damage),[2]; [4],81
same,Classification and statistics of the grade of pesticide damage: Grade 0 (number of plants),[2]; [4],0
same,Classification and statistics of the grade of pesticide damage: Grade 1 (number of plants),[2]; [4],0
same,Classification and statistics of the grade of pesticide damage: Grade 2 (number of plants),[2]; [4],9
same,Classification and statistics of the grade of pesticide damage: Grade 3 (number of plants),[2]; [4],7
same,Resistance evaluation,[2]; [5],Non-resistant
same,Scores (pesticide damage),[2]; [5],100
same,Classification and statistics of the grade of pesticide damage: Grade 0 (number of plants),[2]; [5],0
same,Classification and statistics of the grade of pesticide damage: Grade 1 (number of plants),[2]; [5],0
same,Classification and statistics of the grade of pesticide damage: Grade 2 (number of plants),[2]; [5],0
same,Classification and statistics of the grade of pesticide damage: Grade 3 (number of plants),[2]; [5],16
same,Classification and statistics of the grade of pesticide damage: Grade 0,[3]; topramezone 25 g ai/ha (1×),0
same,Classification and statistics of the grade of pesticide damage: Grade 1,[3]; topramezone 25 g ai/ha (1×),3
same,Classification and statistics of the grade of pesticide damage: Grade 2,[3]; topramezone 25 g ai/ha (1×),9
same,Classification and statistics of the grade of pesticide damage: Grade 3,[3]; topramezone 25 g ai/ha (1×),4
same,Classification and statistics of the grade of pesticide damage: Grade 0,[3]; topramezone 100 g ai/ha (4×),0
same,Classification and statistics of the grade of pesticide damage: Grade 1,[3]; topramezone 100 g ai/ha (4×),0
same,Classification and statistics of the grade of pesticide damage: Grade 2,[3]; topramezone 100 g ai/ha (4×),0
same,Classification and statistics of the grade of pesticide damage: Grade 3,[3]; topramezone 100 g ai/ha (4×),16
same,Scores,[3]; topramezone 25 g ai/ha (1×),69
same,Scores,[3]; topramezone 100 g ai/ha (4×),100
same,Resistance evaluation,[3]; topramezone 25 g ai/ha (1×),non-resistant (non-resistant plants (scores 68-100))
same,Resistance evaluation,[3]; topramezone 100 g ai/ha (4×),non-resistant (non-resistant plants (scores 68-100))
